From article PMC3747071

Target: HA-tagged GW182 (Drosophila) (UniProt Q8SY33)
Assay: co-IP; lysate of stable S2 cells expressing HA-GW182 and Myc-HPat, treated with dsRNA against YFP (control), AGO1, NOT1, EDC4 and DCP1, or XRN1; anti-HA antibody (12CA5) cross-linked to protein A sepharose; washes with NET buffer with 300 mM NaCl; quantitative Western blot

Sequence of UniProt Q8SY33 (Q8SY33 whole entry): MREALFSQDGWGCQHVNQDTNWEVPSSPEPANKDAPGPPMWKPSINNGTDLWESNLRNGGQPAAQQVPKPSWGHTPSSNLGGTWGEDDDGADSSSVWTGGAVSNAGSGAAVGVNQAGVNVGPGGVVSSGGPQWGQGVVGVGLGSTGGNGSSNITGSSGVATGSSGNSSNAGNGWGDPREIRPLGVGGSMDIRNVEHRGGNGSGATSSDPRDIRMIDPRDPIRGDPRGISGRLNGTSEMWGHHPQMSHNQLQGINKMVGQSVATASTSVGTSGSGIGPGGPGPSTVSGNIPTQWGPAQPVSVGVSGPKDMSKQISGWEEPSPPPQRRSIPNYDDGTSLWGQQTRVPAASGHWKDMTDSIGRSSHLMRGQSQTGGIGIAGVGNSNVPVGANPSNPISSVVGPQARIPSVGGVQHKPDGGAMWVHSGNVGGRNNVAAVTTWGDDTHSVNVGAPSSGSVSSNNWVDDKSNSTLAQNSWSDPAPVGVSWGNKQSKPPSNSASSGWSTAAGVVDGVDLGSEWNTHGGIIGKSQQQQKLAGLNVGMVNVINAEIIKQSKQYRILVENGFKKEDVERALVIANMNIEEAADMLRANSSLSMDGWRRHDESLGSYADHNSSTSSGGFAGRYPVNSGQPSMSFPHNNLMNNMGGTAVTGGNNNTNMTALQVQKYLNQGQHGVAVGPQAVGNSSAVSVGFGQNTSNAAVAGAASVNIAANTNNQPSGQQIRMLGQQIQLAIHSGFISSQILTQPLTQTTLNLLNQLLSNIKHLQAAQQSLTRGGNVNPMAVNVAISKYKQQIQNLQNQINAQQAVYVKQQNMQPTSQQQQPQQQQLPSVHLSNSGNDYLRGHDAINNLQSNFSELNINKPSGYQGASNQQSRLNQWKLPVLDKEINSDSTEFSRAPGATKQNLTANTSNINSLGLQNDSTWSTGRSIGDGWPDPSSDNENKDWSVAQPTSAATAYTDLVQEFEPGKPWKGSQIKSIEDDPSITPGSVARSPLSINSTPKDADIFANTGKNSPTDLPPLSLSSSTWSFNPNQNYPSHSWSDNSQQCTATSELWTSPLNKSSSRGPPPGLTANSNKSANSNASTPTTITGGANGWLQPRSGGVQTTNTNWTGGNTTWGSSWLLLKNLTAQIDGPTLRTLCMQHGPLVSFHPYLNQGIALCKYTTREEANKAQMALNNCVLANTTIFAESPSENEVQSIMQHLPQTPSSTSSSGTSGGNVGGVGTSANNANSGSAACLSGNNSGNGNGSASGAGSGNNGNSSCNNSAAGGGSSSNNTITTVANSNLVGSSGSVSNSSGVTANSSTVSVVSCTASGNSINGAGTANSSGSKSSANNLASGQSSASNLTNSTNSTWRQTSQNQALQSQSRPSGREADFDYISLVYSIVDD

decrease of the Myc-HPat/HA-GW182 ratio in the immunoprecipitate, AGO1 knockdown cells against dsYFP control cells: 84.6% | decrease of the Myc-HPat/HA-GW182 ratio in the immunoprecipitate, NOT1 knockdown cells against dsYFP control cells: 69.7%
Substance: Myc-tagged HPat (natural protein)
